Source: article PMC9492775

Molecular target: C3 degradation products deposited on the bacterial surface (human) (UniProt P01024)
Assay: flow cytometry on cells; S. aureus JE2Δsbi spa::Tn opsonised in 10% NHS, incubated with polyclonal anti-human C3d antibody or not, washed, then probed with biotin-labelled Sbi-IV and streptavidin-AF488; gMFI

Chain of UniProt P01024 (P01024 23-1663): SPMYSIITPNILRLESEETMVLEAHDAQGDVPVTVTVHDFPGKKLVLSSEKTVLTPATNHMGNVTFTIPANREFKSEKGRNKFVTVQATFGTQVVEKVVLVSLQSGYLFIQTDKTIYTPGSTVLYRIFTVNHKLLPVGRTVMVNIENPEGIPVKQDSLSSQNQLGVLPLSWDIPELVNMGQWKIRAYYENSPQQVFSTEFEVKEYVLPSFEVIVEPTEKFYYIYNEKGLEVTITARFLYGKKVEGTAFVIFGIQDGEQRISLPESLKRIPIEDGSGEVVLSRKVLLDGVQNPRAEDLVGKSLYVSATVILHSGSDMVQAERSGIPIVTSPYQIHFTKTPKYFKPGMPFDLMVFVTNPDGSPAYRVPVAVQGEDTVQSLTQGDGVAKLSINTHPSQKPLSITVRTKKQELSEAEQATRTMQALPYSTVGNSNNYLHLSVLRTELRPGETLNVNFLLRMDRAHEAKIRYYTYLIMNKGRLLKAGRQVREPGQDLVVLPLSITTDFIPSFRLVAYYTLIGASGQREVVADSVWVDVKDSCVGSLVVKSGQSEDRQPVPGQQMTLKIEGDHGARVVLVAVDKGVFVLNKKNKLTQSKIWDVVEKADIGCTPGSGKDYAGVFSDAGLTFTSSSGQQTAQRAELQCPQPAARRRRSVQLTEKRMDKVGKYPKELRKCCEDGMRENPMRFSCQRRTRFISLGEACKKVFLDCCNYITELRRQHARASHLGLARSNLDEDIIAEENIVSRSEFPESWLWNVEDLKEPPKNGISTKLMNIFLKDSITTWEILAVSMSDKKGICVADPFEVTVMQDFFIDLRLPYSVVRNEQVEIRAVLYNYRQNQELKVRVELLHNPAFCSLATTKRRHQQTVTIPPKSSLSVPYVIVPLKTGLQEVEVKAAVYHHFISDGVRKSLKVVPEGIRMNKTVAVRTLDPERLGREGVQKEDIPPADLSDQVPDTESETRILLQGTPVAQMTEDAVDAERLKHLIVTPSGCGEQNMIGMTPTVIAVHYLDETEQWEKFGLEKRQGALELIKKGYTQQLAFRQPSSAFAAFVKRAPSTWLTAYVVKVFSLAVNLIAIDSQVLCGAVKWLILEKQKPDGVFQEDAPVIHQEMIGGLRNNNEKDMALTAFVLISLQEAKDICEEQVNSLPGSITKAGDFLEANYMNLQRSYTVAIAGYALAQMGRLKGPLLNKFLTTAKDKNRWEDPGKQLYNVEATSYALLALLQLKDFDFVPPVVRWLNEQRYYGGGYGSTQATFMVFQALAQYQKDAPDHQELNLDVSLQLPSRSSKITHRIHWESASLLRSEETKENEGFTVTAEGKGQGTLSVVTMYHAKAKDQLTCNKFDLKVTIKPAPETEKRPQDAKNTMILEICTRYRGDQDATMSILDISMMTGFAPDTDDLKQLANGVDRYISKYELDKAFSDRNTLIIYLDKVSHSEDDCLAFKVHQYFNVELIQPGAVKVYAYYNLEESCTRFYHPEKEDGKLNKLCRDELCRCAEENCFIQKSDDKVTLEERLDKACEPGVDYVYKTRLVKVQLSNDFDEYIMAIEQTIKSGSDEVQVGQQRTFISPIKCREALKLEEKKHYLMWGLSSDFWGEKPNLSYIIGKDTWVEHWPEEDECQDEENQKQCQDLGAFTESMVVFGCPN

biotin-labelled Sbi-IV (complement C3 binding domain IV of the staphylococcal Sbi protein) (from UniProt Q931F4 198-266) (domain or fragment)
percent reduction of binding after polyclonal anti-C3d antibodies: 50%
